In paper PMC4434323:

Assays:
[1] = molecular target: T1, odr-7 (T18D3.2) (Caenorhabditis elegans) (UniProt P41933)
T1 sequence: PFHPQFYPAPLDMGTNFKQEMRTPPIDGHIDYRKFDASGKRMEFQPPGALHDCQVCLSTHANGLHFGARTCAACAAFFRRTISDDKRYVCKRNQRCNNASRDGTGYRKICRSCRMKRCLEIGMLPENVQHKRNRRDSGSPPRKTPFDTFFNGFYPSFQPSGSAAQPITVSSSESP

[2] = molecular target: T2, nhr-232 (Y22F5A.1) (Caenorhabditis elegans) (UniProt A0A486WVR6)
T2 sequence: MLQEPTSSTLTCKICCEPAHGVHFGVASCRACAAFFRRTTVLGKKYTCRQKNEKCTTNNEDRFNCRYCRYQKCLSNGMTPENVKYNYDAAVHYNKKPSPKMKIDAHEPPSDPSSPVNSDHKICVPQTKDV

[3] = molecular target: T3, nhr-70 (Y51A2D.17) (Caenorhabditis elegans) (UniProt G5EEL3)
T3 sequence: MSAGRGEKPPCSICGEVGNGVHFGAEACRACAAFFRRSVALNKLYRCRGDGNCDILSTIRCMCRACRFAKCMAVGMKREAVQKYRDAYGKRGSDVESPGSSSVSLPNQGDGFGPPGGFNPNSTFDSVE

[4] = molecular target: T4, nhr-142 (F44E7.8) (Caenorhabditis elegans) (UniProt J7SF93)
T4 sequence: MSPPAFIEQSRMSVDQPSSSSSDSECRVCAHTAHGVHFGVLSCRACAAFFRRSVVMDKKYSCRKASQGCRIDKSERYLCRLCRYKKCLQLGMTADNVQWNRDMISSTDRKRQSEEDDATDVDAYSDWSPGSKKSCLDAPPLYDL

[5] = molecular target: T5, mbr-1 (T01C1.2) (Caenorhabditis elegans) (UniProt G5EGQ5)
T5 sequence: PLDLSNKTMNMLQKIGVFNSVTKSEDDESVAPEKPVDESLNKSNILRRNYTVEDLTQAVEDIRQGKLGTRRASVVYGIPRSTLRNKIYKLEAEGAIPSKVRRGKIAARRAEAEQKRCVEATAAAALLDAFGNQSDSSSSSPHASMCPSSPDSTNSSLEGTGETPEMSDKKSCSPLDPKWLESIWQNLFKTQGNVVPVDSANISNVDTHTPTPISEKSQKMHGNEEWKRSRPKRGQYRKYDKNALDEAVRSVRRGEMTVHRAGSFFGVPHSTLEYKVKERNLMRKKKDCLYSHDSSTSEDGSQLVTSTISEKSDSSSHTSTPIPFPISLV

[6] = molecular target: T6, skn-1 (T19E7.2) (Caenorhabditis elegans) (UniProt P34707)
T6 sequence: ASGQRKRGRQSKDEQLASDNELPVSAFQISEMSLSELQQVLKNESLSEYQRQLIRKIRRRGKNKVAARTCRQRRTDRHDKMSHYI

[7] = tested on: T7, nhr-216 (T09D3.4) (Caenorhabditis elegans)
T7 sequence: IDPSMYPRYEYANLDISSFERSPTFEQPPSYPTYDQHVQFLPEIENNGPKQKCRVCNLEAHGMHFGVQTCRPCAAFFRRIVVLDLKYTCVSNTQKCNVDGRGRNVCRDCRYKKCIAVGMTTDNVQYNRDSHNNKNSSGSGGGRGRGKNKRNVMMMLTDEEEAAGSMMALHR

[8] = molecular target: T8, nhr-42 (C33G8.6) (Caenorhabditis elegans) (UniProt O76828)
T8 sequence: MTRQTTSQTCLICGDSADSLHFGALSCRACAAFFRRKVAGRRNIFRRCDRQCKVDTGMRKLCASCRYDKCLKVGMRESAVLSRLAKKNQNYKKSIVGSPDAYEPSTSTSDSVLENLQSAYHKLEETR

Question: Which binding signal (PBM E-score (-0.5 to 0.5)) [1] does the source give for “AATTGTAG (double strand) [8-mer AATTGTAG]” here?
Answer: 0.489

Question: For “ACACAAAA (double strand) [8-mer ACACAAAA]”, which binding signal (PBM E-score (-0.5 to 0.5)) [2] is on record?
Answer: 0.465

Question: How did the binding signal (PBM E-score (-0.5 to 0.5)) [3] turn out when “GGCTACAA (double strand) [8-mer GGCTACAA]” was run?
Answer: 0.492

Question: What about the binding signal (PBM E-score (-0.5 to 0.5)) [1] of the same sequence?
Answer: 0.467

Question: What does the source list for “AGTCACAG (double strand) [8-mer AGTCACAG]”?
Answer: binding signal (PBM E-score (-0.5 to 0.5)) [4]: 0.492; binding signal (PBM E-score (-0.5 to 0.5)) [2]: 0.465

Question: Which binding signal (PBM E-score (-0.5 to 0.5)) [5] does the source give for “GGGGCCTA (double strand) [8-mer GGGGCCTA]” here?
Answer: 0.487

Question: For “GAGGGGCC (double strand) [8-mer GAGGGGCC]”, which binding signal (PBM E-score (-0.5 to 0.5)) [5] is on record?
Answer: 0.489

Question: Which binding signal (PBM E-score (-0.5 to 0.5)) [4] does the source give for “AGTCATAA (double strand) [8-mer AGTCATAA]” here?
Answer: 0.491

Question: What about the binding signal (PBM E-score (-0.5 to 0.5)) [2] of the same sequence?
Answer: 0.48

Question: How did the binding signal (PBM E-score (-0.5 to 0.5)) [5] turn out when “AAGGCCCC (double strand) [8-mer AAGGCCCC]” was run?
Answer: 0.489

Question: Which binding signal (PBM E-score (-0.5 to 0.5)) [6] does the source give for “GATGATAA (double strand) [8-mer GATGATAA]” here?
Answer: 0.488

Question: How did the binding signal (PBM E-score (-0.5 to 0.5)) [5] turn out when “ATGGCCCC (double strand) [8-mer ATGGCCCC]” was run?
Answer: 0.487

Question: “AGGCCCCC (double strand) [8-mer AGGCCCCC]” was tested. Which binding signal (PBM E-score (-0.5 to 0.5)) [5] did it give?
Answer: 0.495

Question: With “AGGCTACA (double strand) [8-mer AGGCTACA]” as the sequence, how does the binding signal (PBM E-score (-0.5 to 0.5)) [3] read?
Answer: 0.488

Question: How did the binding signal (PBM E-score (-0.5 to 0.5)) [1] turn out when “ATTTGTAG (double strand) [8-mer ATTTGTAG]” was run?
Answer: 0.479

Question: How did the binding signal (PBM E-score (-0.5 to 0.5)) [7] turn out when “ATCAGAAC (double strand) [8-mer ATCAGAAC]” was run?
Answer: 0.494

Question: With “AGGGGCCA (double strand) [8-mer AGGGGCCA]” as the sequence, how does the binding signal (PBM E-score (-0.5 to 0.5)) [5] read?
Answer: 0.492

Question: “GTCAGAAC (double strand) [8-mer GTCAGAAC]” was tested. Which binding signal (PBM E-score (-0.5 to 0.5)) [7] did it give?
Answer: 0.498

Question: For “ATTGTAGC (double strand) [8-mer ATTGTAGC]”, which binding signal (PBM E-score (-0.5 to 0.5)) [1] is on record?
Answer: 0.487

Question: Which binding signal (PBM E-score (-0.5 to 0.5)) [7] does the source give for “CTTCTGAC (double strand) [8-mer CTTCTGAC]” here?
Answer: 0.498

Question: For “CTACAATC (double strand) [8-mer CTACAATC]”, which binding signal (PBM E-score (-0.5 to 0.5)) [1] is on record?
Answer: 0.466

Question: “GGACAGAA (double strand) [8-mer GGACAGAA]” was tested. Which binding signal (PBM E-score (-0.5 to 0.5)) [7] did it give?
Answer: 0.493

Question: For “ATACAATA (double strand) [8-mer ATACAATA]”, which binding signal (PBM E-score (-0.5 to 0.5)) [1] is on record?
Answer: 0.461

Question: How did the binding signal (PBM E-score (-0.5 to 0.5)) [4] turn out when “TGTCACAA (double strand) [8-mer TGTCACAA]” was run?
Answer: 0.49

Question: And the binding signal (PBM E-score (-0.5 to 0.5)) [2]?
Answer: 0.474

Question: Which binding signal (PBM E-score (-0.5 to 0.5)) [5] does the source give for “GGGGGCCA (double strand) [8-mer GGGGGCCA]” here?
Answer: 0.495

Question: Which binding signal (PBM E-score (-0.5 to 0.5)) [1] does the source give for “AATTGTAC (double strand) [8-mer AATTGTAC]” here?
Answer: 0.46

Question: How did the binding signal (PBM E-score (-0.5 to 0.5)) [1] turn out when “TACAAATA (double strand) [8-mer TACAAATA]” was run?
Answer: 0.461

Question: Which results are given for “GTCACAAA (double strand) [8-mer GTCACAAA]”?
Answer: binding signal (PBM E-score (-0.5 to 0.5)) [4]: 0.498; binding signal (PBM E-score (-0.5 to 0.5)) [2]: 0.497; binding signal (PBM E-score (-0.5 to 0.5)) [8]: 0.48

Question: With “CGGGGGGC (double strand) [8-mer CGGGGGGC]” as the sequence, how does the binding signal (PBM E-score (-0.5 to 0.5)) [5] read?
Answer: 0.487

Question: With “AGTCACAC (double strand) [8-mer AGTCACAC]” as the sequence, how does the binding signal (PBM E-score (-0.5 to 0.5)) [4] read?
Answer: 0.49

Question: And the binding signal (PBM E-score (-0.5 to 0.5)) [2]?
Answer: 0.48

Question: And the binding signal (PBM E-score (-0.5 to 0.5)) [8]?
Answer: 0.489

Question: How did the binding signal (PBM E-score (-0.5 to 0.5)) [5] turn out when “GCCCCCCA (double strand) [8-mer GCCCCCCA]” was run?
Answer: 0.487

Question: How did the binding signal (PBM E-score (-0.5 to 0.5)) [1] turn out when “TACTACAA (double strand) [8-mer TACTACAA]” was run?
Answer: 0.474

Question: What does the source list for “AGTCACAA (double strand) [8-mer AGTCACAA]”?
Answer: binding signal (PBM E-score (-0.5 to 0.5)) [4]: 0.498; binding signal (PBM E-score (-0.5 to 0.5)) [2]: 0.497; binding signal (PBM E-score (-0.5 to 0.5)) [8]: 0.489

Question: How did the binding signal (PBM E-score (-0.5 to 0.5)) [7] turn out when “AATCAGAA (double strand) [8-mer AATCAGAA]” was run?
Answer: 0.497
